This note sets out measurements from paper doi:10.1101/2025.03.04.641353.

Like-named read-outs stand apart in the source and are kept apart here.

Series [1] has as its target T1, Bovine serum albumin (BSA) (Bos taurus, UniProt P02769 25-607). The experiment in a line: SYBR Green I fluorescence titration.
Series [2] has as its target T1, Bovine serum albumin (BSA). Nature of the series: SYBR Green I fluorescence titration. This is another data set of the same source.

T1 sequence (P02769 25-607): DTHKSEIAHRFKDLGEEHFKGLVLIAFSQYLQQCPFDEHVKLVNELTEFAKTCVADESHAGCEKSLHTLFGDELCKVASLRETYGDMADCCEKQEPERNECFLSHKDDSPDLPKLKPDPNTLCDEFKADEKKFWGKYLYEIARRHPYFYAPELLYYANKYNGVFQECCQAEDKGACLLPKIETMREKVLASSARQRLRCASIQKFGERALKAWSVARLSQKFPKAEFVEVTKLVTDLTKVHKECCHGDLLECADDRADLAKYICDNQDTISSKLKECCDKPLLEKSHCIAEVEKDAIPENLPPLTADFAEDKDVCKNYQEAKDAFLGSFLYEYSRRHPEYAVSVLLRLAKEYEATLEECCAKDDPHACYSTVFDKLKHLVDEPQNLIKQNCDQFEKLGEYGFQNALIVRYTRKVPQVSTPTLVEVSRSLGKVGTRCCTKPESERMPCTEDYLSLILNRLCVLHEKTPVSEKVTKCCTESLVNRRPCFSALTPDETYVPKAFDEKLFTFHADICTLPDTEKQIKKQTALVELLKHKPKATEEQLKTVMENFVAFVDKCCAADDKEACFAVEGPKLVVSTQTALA

With AGCAGCACAGAGGTCAGATGGTATCGAGCGCAGGGCCGCCTTTGTT (ssDNA) [R_apt], the Kd – broadly, the concentration at which binding is half-saturated – in series [1] was found to be 20 nM.

B1: Ni_apt (ssDNA)
DNA: AAAAAAAAAAGCAGCACAGAGGTCAGATGGTATCGAGCGCAGGGCCGCCTTTGTT
For the molecule B1, binding in series [2] was characterised by a dissociation constant (Kd) of 120 nM.
